The values that follow come from patent US20250320297A1 (SHANGHAI HENLIUS BIOTECH, published 2025).

Changes are numbered by the printed parent chain. Numbers in names are those of the source.

Test in all cases: cell-based or functional assay
In assay [1] the target is T1, human PDL1 stably expressed on CHO cells (human, UniProt Q9NZQ7 19-290).
In assay [2] the target is T1, human PDL1 stably expressed on CHO cells. This is another data set of the same source.
Assay [3] shares this target. This is another data set of the same source.
Assay [4] shares this target. This is another data set of the same source.

T1 sequence (Q9NZQ7 19-290 limits assumed): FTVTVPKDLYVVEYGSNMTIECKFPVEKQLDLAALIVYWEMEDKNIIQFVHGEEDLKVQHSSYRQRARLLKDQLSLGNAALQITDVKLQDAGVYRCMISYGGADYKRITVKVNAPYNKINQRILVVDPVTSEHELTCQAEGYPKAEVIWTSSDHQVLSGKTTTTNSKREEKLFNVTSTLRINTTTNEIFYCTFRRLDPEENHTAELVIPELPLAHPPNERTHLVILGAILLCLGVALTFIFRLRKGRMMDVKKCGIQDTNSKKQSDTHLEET

B1: 10A4 VHH-Fc (chimeric bivalent antibody) (antibody, human IgG1, V domains shown)
VH: QVKLEESGGGLVMAGGSLRLSCAASGGPFMSYAMGWFRQAPGKEREFVAAIRWNGISTFYADSVKGRFTVSRDNGKNMAFLQMNSLKPEDTAVYYCAAAQTIVTVPENYEYHYWGQGTQVTVSS
With B1, the “EC50; NFAT luciferase reporter (RLU), whole cell PDL1/PD1 blocking assay; printed as 10A4 Parental” value in assay [1] was determined as 3.79 nM. Besides, the “EC50 (read off the curve); luminescence (RLU) of the NFAT reporter, PDL1 Blockade assay (CHO-PDL1) [middle panel]” value (“EC50 (read off the curve) … [middle panel]” for short) in assay [2] is roughly 1 nM. Further, in assay [3], the “EC50; NFAT luciferase reporter (RLU), CHO cells with human PDL1 co-incubated with Jurkat cells with human PD1 and NFAT reporter, blocking of PDL1/PD1” value turned out to be 0.242 nM.

B2: 2F9 VHH-Fc (antibody, human IgG1, V domains shown)
VH: QVQLVESGGGVVQPGRSLRLSCAASGGPFMSYAMGWFRQAPGKEREFVAAIRWSGISTFYADSVKGRFTISRDNSKNTLYLQMNSLRAEDTAVYYCAAAQTIVTVPENYEFDYWGQGTQVTVSS
B2: in assay [2], the “EC50 (read off the curve); luminescence (RLU) of the NFAT reporter, PDL1 Blockade assay (CHO-PDL1) [top panel]” value (“EC50 (read off the curve) … [top panel]” for short) is roughly 2 nM.

B3: 1H2 VHH-Fc (antibody, human IgG1, V domains shown)
VH: B2 VH with I56L, Q100P
On to B3, for which, in assay [2], the “EC50 (read off the curve) … [top panel]” value was roughly 2 nM.

B4: 3D5 VHH-Fc (antibody, human IgG1, V domains shown)
VH: B2 VH with I56H, V103S
In the case of B4, the “EC50 (read off the curve) … [middle panel]” value in assay [2] is roughly 1 nM.

B5: 5G10 VHH-Fc (antibody, human IgG1, V domains shown)
VH: B2 VH with I56A
For the molecule B5, the “EC50 (read off the curve) … [middle panel]” value in assay [2] was roughly 2 nM.

B6: 1F6 VHH-Fc (antibody, human IgG1, V domains shown)
VH: B2 VH with I56K, N108S
With B6, the “EC50 (read off the curve) … [top panel]” value in assay [2] is roughly 2 nM.

B7: 1G12 VHH-Fc (antibody, human IgG1, V domains shown)
VH: B2 VH with I56L, E110N
For the molecule B7, the “EC50 (read off the curve) … [middle panel]” value in assay [2] is roughly 1 nM.

B8: Humanized 10A4 GLEF-N2S VHH-Fc (antibody, human IgG1, V domains shown)
VH: B2 VH with Q1E, V11L, R16G, F37V, E44G, R45L, F111Y, D112H
Take B8: the “EC50; NFAT luciferase reporter (RLU), whole cell PDL1/PD1 blocking assay” value in assay [1] amounted to 7.37 nM. Further, the “EC50 (read off the curve); luminescence (RLU) of the NFAT reporter, PDL1 Blockade assay (CHO-PDL1) [bottom panel]” value in assay [2] is roughly 2 nM. In addition, the “EC50; NFAT luciferase reporter (RLU), whole cell PDL1/PD1 blocking assay; printed as 10A4 GLEF-N2S” value in assay [4] turned out to be 0.824 nM.

B9: Humanized 10A4 GLEF VHH-Fc (antibody, human IgG1, V domains shown)
VH: B2 VH with Q1E, V11L, R16G, F37V, E44G, R45L, S54N, F111Y, D112H
For B9, the “EC50; NFAT luciferase reporter (RLU), whole cell PDL1/PD1 blocking assay” value in assay [1] was determined as 8.3 nM.

B10: 5D8 VHH-Fc (antibody, human IgG1, V domains shown)
VH: B2 VH with I56Q, E107S
On to B10, for which the “EC50 (read off the curve) … [middle panel]” value in assay [2] is roughly 2 nM.

B11: 1E4 VHH-Fc (antibody, human IgG1, V domains shown)
VH: B2 VH with S54N
Regarding B11, the “EC50 (read off the curve) … [top panel]” value in assay [2] is roughly 2 nM.
